From the supplement of paper PMC5998384

Key:
[1] = test system: HeLa Kyoto; assay: solubility change mitosis vs G1/S (difference of NP-40 vs SDS log2 ratios) (log2 ratio difference); higher = more soluble in mitosis
[2] = test system: HeLa Kyoto; assay: solubility in G1/S (NP-40 vs SDS abundance) (log2 ratio); higher = more soluble; conditions: cell cycle stage: G1/S
[3] = test system: HeLa Kyoto; assay: thermal stability score vs G1/S (z-score of summed log2 fold changes over temperatures); higher = more thermally stable than in G1/S
[4] = test system: HeLa Kyoto; assay: melting temperature (median over replicates), in situ; higher = more thermally stable
[5] = cell cycle stage: early G1 (4.5 h after nocodazole release)
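For melting temperature (median over replicates), in situ in this document: HeLa Kyoto cells synchronized by double thymidine or nocodazole block, proteins quantified by TMT10plex mass spectrometry, three independent biological replicates.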
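For solubility change mitosis vs G1/S (difference of NP-40 vs SDS log2 ratios) in this document: synchronized HeLa Kyoto cells (double thymidine block for G1/S, nocodazole release for mitosis), protein amounts in NP-40 versus SDS lysates quantified by mass spectrometry, three biological replicates.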
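For solubility in G1/S (NP-40 vs SDS abundance) in this document: HeLa Kyoto cells arrested at G1/S by double thymidine block, proteins quantified by TMT10plex mass spectrometry in mild NP-40 versus SDS extracts, three biological replicates.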
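For thermal stability score vs G1/S (z-score of summed log2 fold changes over temperatures) in this document: synchronized HeLa Kyoto cells, proteins quantified by TMT10plex mass spectrometry, three biological replicates, mitosis taken 0.5 h after nocodazole release, G1/S directly after double thymidine block.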

Substance	solubility change mitosis (log2) [1]	solubility in G1/S (log2) [2]	thermal stability score [3, 5]	thermal stability score ([3]; cell cycle stage: mitosis)	melting temperature ([4]; cell cycle stage: G1/S) [°C]	melting temperature ([4]; cell cycle stage: mitosis) [°C]
MARKRAAGGEPRGRELRSQKSKAKSKARREEEEEDAFEDEKPPKKSLLSKVSQGKRKRGCSHPGGSADGPAKKKVAKVTVKSENLKVIKDEALSDGDDLRDFPSDLKKAHHLKRGATMNEDSNEEEEESENDWEEVEELSEPVLGDVRESTAFSRSLLPVKPVEIEIETPEQAKTRERSEKIKLEFETYLRRAMKRFNKGVHEDTHKVHLLCLLANGFYRNNICSQPDLHAIGLSIIPARFTRVLPRDVDTYYLSNLVKWFIGTFTVNAELSASEQDNLQTTLERRFAIYSARDDEELVHIFLLILRALQLLTRLVLSLQPIPLKSATAKGKKPSKERLTADPGGSSETSSQVLENHTKPKTSKGTKQEETFAKGTCRPSAKGKRNKGGRKKRSKPSSSEEDEGPGDKQEKATQRRPHGRERRVASRVSYKEESGSDEAGSGSDFELSSGEASDPSDEDSEPGPPKQRKAPAPQRTKAGSKSASRTHRGSHRKDPSLPAASSSSSSSKRGKKMCSDGEKAEKRSIAGIDQWLEVFCEQEEKWVCVDCVHGVVGQPLTCYKYATKPMTYVVGIDSDGWVRDVTQRYDPVWMTVTRKCRVDAEWWAETLRPYQSPFMDREKKEDLEFQAKHMDQPLPTAIGLYKNHPLYALKRHLLKYEAIYPETAAILGYCRGEAVYSRDCVHTLHSRDTWLKKARVVRLGEVPYKMVKGFSNRARKARLAEPQLREENDLGLFGYWQTEEYQPPVAVDGKVPRNEFGNVYLFLPSMMPIGCVQLNLPNLHRVARKLDIDCVQAITGFDFHGGYSHPVTDGYIVCEEFKDVLLTAWENEQAVIERKEKEKKEKRALGNWKLLAKGLLIRERLKRRYGPKSEAAAPHTDAGGGLSSDEEEGTSSQAEAARILAASWPQNREDEEKQKLKGGPKKTKREKKAAASHLFPFEQL [XPC]	0.43	-0.919	0.959	2.74	47.7	48.4
MSHPDYRMNLRPLGTPRGVSAVAGPHDIGASPGDKKSKNRSTRGKKKSIFETYMSKEDVSEGLKRGTLIQGVLRINPKKFHEAFIPSPDGDRDIFIDGVVARNRALNGDLVVVKLLPEEHWKVVKPESNDKETEAAYESDIPEELCGHHLPQQSLKSYNDSPDVIVEAQFDGSDSEDGHGITQNVLVDGVKKLSVCVSEKGREDGDAPVTKDETTCISQDTRALSEKSLQRSAKVVYILEKKHSRAATGFLKLLADKNSELFRKYALFSPSDHRVPRIYVPLKDCPQDFVARPKDYANTLFICRIVDWKEDCNFALGQLAKSLGQAGEIEPETEGILTEYGVDFSDFSSEVLECLPQGLPWTIPPEEFSKRRDLRKDCIFTIDPSTARDLDDALSCKPLADGNFKVGVHIADVSYFVPEGSDLDKVAAERATSVYLVQKVVPMLPRLLCEELCSLNPMSDKLTFSVIWTLTPEGKILDEWFGRTIIRSCTKLSYEHAQSMIESPTEKIPAKELPPISPEHSSEEVHQAVLNLHGIAKQLRQQRFVDGALRLDQLKLAFTLDHETGLPQGCHIYEYRESNKLVEEFMLLANMAVAHKIHRAFPEQALLRRHPPPQTRMLSDLVEFCDQMGLPVDFSSAGALNKSLTQTFGDDKYSLARKEVLTNMCSRPMQMALYFCSGLLQDPAQFRHYALNVPLYTHFTSPIRRFADVLVHRLLAAALGYRERLDMAPDTLQKQADHCNDRRMASKRVQELSTSLFFAVLVKESGPLESEAMVMGILKQAFDVLVLRYGVQKRIYCNALALRSHHFQKVGKKPELTLVWEPEDMEQEPAQQVITIFSLVEVVLQAESTALKYSAILKRPGTQGHLGPEKEEEESDGEPEDSSTS [DIS3L2]	-0.1	-0.0925	-0.153	-0.198	50.6	50.5
MAAQCVRLARRSLPALALSLRPSPRLLCTATKQKNSGQNLEEDMGQSEQKADPPATEKTLLEEKVKLEEQLKETVEKYKRALADTENLRQRSQKLVEEAKLYGIQAFCKDLLEVADVLEKATQCVPKEEIKDDNPHLKNLYEGLVMTEVQIQKVFTKHGLLKLNPVGAKFDPYEHEALFHTPVEGKEPGTVALVSKVGYKLHGRTLRPALVGVVKEA [GRPEL1]	0.707	0.661	-2.01	-2.29	51.2	51
FLNA	-0.105	-0.000309	-0.0595	2.86	50.2	50.3
MDPLSELQDDLTLDDTSEALNQLKLASIDEKNWPSDEMPDFPKSDDSKSSSPELVTHLKWDDPYYDIARHQIVEVAGDDKYGRKIIVFSACRMPPSHQLDHSKLLGYLKHTLDQYVESDYTLLYLHHGLTSDNKPSLSWLRDAYREFDRKYKKNIKALYIVHPTMFIKTLLILFKPLISFKFGQKIFYVNYLSELSEHVKLEQLGIPRQVLKYDDFLKSTQKSPATAPKPMPPRPPLPNQQFGVSLQHLQEKNPEQEPIPIVLRETVAYLQAHALTTEGIFRRSANTQVVREVQQKYNMGLPVDFDQYNELHLPAVILKTFLRELPEPLLTFDLYPHVVGFLNIDESQRVPATLQVLQTLPEENYQVLRFLTAFLVQISAHSDQNKMTNTNLAVVFGPNLLWAKDAAITLKAINPINTFTKFLLDHQGELFPSPDPSGL [ARHGAP1]	-0.0609	0.473	0.517	0.431	51.4	51.4
MAAAALRRFWSRRRAEAGDAVVAKPGVWARLGSWARALLRDYAEACRDASAEARARPGRAAVYVGLLGGAAACFTLAPSEGAFEEALLEASGTLLLLAPATRNRESEAFVQRLLWLRGRGRLRYVNLGLCSLVYEAPFDAQASLYQARCRYLQPRWTDFPGRVLDVGFVGRWWVLGAWMRDCDINDDEFLHLPAHLRVVGPQQLHSETNERLFDEKYKPVVLTDDQVDQALWEEQVLQKEKKDRLALSQAHSLVQAEAPR [C19ORF52]	-0.13	-0.131	0.683	0.243	53.5	53.8
